In patent publication US5747239A, “Synthetic peptides specific for the detection of antibodies to HCV, diagnosis of HCV infection and preventions thereof as vaccines” (United Biomedical, Inc., priority 1994, dated 1998):

Legend:
Format in all cases: binding, human
[1] = system: antibodies to HCV; test: NS-1 peptide ELISA, Panel II (asymptomatic individuals, mainland China and Taiwan)
Description: Wells of 96-well plates were coated for 1 hour at 37° C. with each of the 16 peptides (designated as peptides 241A-C, 231A-E, 232A-D, 233C, 234A-C), synthesized according to sequences derived from the NS-1 region (Table 3A), at 5 ug/mL at 100 uL per well in 10 mM NaHCO3 buffer, pH 9.5. Each peptide's immunoreactivity was measured as previously described (see Example 1), using an 8 member serum panel (Panel I).
A panel of serum samples from individuals coming from regions in which hepatitis C is endemic, namely mainland China and Taiwan, were tested for evidence of reactivity to these NS-1 protein derived peptides. Twenty-four samples were chosen from individuals who had no recognizable symptoms of non-A, non-B hepatitis and for whom the peptide based HCV EIA, Format C, as described in Example 11, was nonreactive. Seven of the 24 samples (29%) were reactive against one or more peptides from the NS-1 region, indicative of the presence of long term protective antibodies responsive to this region. This 7 member panel (designated as Panel II, CH1-CH7) was used to further characterize these NS-1 peptides for their immunoreactivity.
The peptide with the greatest reactivity against the serum Panel II again was pep1 (designated 231c in Table 3A). Using this peptide as a standard, the relative immunoreactivity for each of the other 15 peptides from the NS-1 region are calculated in Table 3A.

[2] = system: antibodies to HCV; test: Peptide ELISA for relative immunoreactivity, 8 member HCV serum panel (Panel I); conditions: for absorbance of the one reactive panel member: reactive with only one of eight
Description: As an example to illustrate how relative (%) immunoreactivity for HCV synthetic peptides is measured, wells of 96-well plates are coated for 1 hour at 37° C., with each of the following peptides: IIH, V, VIIIE and pep11 at 5 ug/mL at 100 uL per well in 10 mM NaHCO3 buffer, pH 9.5. The peptide coated wells were then incubated with 250 uL of 3% by weight of gelatin in PBS in 37° C. for 1 hour to block non-specificprotein binding sites, followed by three washes with PBS containing 0.05% by volume of TWEEN 20 and then dried. The test specimens containing a panel of eight well-characterized HCV antibody positive patient sera were diluted with PBS containing 20% by volume normal goat serum, 1% by weight gelatin and 0.05% by volume TWEEN 20 at dilutions of 1:20 volume to volume, respectively. 200 uL of the diluted specimens were added to each of the wells and allowed to react for 15 minutes at 37° C.
The wells were then washed six times with 0.05% by volume TWEEN 20 in PBS in order to remove unbound antibodies. Horseradish peroxidase conjugated goat anti-human IgG was used as a second antibody tracer to bind with the HCV antibody-peptide antigen complex formed in positive wells. 100 uL of peroxidase labeled goat anti-human IgG at a dilution of 1:1800 in 1% by volume normal goat serum, 0.05% by volume TWEEN 20 in PBS was added to each well and incubated at 37° C. for another 15 minutes.
The wells were washed six times with 0.05% by volume TWEEN 20 PBS to remove unbound antibody and reacted with 100 uL of the substrate mixture containing 0.04% by weight orthophenylenediamine (OPD) and 0.12% by volume hydrogen peroxide in sodium citrate buffer, pH 5.0.
This substrate mixture was used to detect the peroxidase label by forming a colored product. Reactions were stopped by the addition of 100 uL of 1.0M H2 SO4 and the A492 mm measured. Results of relative immunoreactivity for each of the peptides obtained from this study are shown in Table A using peptide II H as the reference.

[3] = system: antibodies to HCV; test: Envelope/NS-1 peptide ELISA, anti-HCV positive plasmapheresis donors with elevated ALT (Panel III); conditions: envelope/NS-1 peptides; Panel III (17 samples); peptide 254B as a standard
Description: To select a panel of samples with reactivity to peptides from the envelope/NS-1 region, 97 such samples from anti-HCV positive plasmapheresis donors with elevated ALT levels were tested with peptide 254B. […] 17 samples with the greatest reactivity with peptide 254B were chosen to form a third panel (Panel III) to screen for the immunoreactivity of the other 20 peptides from the envelope/NS-1 region. The individual absorbance values of each of the 17 samples on the four peptides with the greatest reactivity, i.e. 255C (pep7), 254B (pep8), 247B (pep9), and 246D (pep10), are listed in Table 8b.

[4] = system: antibodies to HCV; test: EIA of NS-3 peptides before and after pH adjustment
Description: Peptides dissolved at 1 mg/mL in H2 O, pH 4, were titrated to pH 11 by addition of diluted NaOH. After 5 min at pH 11, the pH of the peptide solution was brought down to 7.0 using diluted HCl. Immunoreactivity of the peptides thus treated was compared with reactivity prior to pH adjustment (Table 4E). Two-to three-fold increases in A492 nm were seen. Some previously non-reactive serum samples were able to react with pH adjusted peptides. For instance, serum sample 1, which is non-reactive to 261C, has an absorbance of 1401 mA when tested with the corresponding pH adjusted peptide.

[5] = NS-3 peptides (Table 4A), Panel I, relative to pep3 (279A)
[6] = NS-5 peptides (Table 12), Panel I, pep11 as a standard
[7] = capsid peptides, Panel I, relative to VIIIE, coated at 5, 1 and 0.2 μg/mL
[8] = serum sample 1, Ctrl (prior to pH adjustment)
[9] = serum sample 1, pH adj (pH 11 for 5 min, then 7.0)

PPLGNWFGCTWMNSTGFTKVCGAPPC [232A]
% IP ([1]; NS-1 peptides, Panel II (CH1-CH7), relative to pep1 (231C)): 88.7% | A492 nm by EIA (mA) ([1]; Panel II sample CH-1): 202 mA | A492 nm by EIA (mA) ([1]; Panel II sample CH-2): 261 mA | A492 nm by EIA (mA) ([1]; Panel II sample CH-3): 935 mA | A492 nm by EIA (mA) ([1]; Panel II sample CH-4): 1498 mA | A492 nm by EIA (mA) ([1]; Panel II sample CH-5): 621 mA | A492 nm by EIA (mA) ([1]; Panel II sample CH-6): 1128 mA | A492 nm by EIA (mA) ([1]; Panel II sample CH-7): 552 mA

PVVPQSFQVAHLHAPTGSGKSTKVPAAYA [278A]
% IP [2, 5]: 8.2%

PVVPQSFQVAHLHAPTGSGKSTKVPAAYAAQGYKVLVLNPS [272A]
% IP [2, 5]: 2.1%

RTITTGSPITYSTYGKFLADGGCSGGAYDIIICDECHSTDATSILGIGTVLDQAETAGARLVVLATATPPGSVTVPHPNIEEVALSTTGEIPFYGKAIPLEVIKGGRHLIFCHSKKKCDEL [261F]
absorbance of the one reactive panel member ([2]; Panel I): 269 mA

SECTTPCSGSWLRDIWDWICEVLSDFKTWLKAKLMPQL [314B]
% IP [2, 6]: 11.6%

TNDCPNSSIVYEAHDAILHTPGCVPCVREGNVSRC [255A]
% Relative Immunoreactivity [3]: 9.8%

TQGCNCSIYPGHITGHRMAWDMMMWSPTA [254A]
% Relative Immunoreactivity [3]: 21.4%

TWAQPGYPWPLYGNEGCGWAGWLLSPRGSRPSWGPTDPRRRSRNLG [IXC]
% Relative Immunoreactivity [2, 7]: 57.9%

VGGVYLLPRRGPRLGVRATRKTSERSQPRGRR [VIIIB]
% Relative Immunoreactivity [2, 7]: 48.9%

B1: AEEDEREISVPAEILRKSRRFAQALPVWARPDYNPPLVETWKKPDYEPPVVHGCPLPPPKSPPVPPPRKKRT (peptide)
chain: AEEDEREISVPAEILRKSRRFAQALPVWARPDYNPPLVETWKKPDYEPPVVHGCPLPPPKSPPVPPPRKKRT
% IP [2, 6]: 97.2%

B2: GGAYDIIICDECHSTDATSILGIGTVLDQAETAGARLVVLATATPPGSVTVPHPNIEEVALSTTGEIPFYGKAIPLEVIKGGRHLIFCHSKKKCDEL (peptide)
chain: GGAYDIIICDECHSTDATSILGIGTVLDQAETAGARLVVLATATPPGSVTVPHPNIEEVALSTTGEIPFYGKAIPLEVIKGGRHLIFCHSKKKCDEL
absorbance of the one reactive panel member ([2]; Panel I): 307 mA

B3: KKGEASNGEAENDTHKKQRRYKEKEKTATNNPGKNKKPRVGRIKNWNREGRKDAYQIRKRR (peptide)
peptide: KKGEASNGEAENDTHKKQRRYKEKEKTATNNPGKNKKPRVGRIKNWNREGRKDAYQIRKRR
% Relative Immunoreactivity ([2]; Arima clone 1 peptides, relative to peptide VIIIE): 20.7%

B4: GRRQPIPKVRRPEGRTWAQPGYPWPLYGNEGCGWAGWLLSPRGSRPSWGPTDPRRRSRNLG (peptide)
peptide: GRRQPIPKVRRPEGRTWAQPGYPWPLYGNEGCGWAGWLLSPRGSRPSWGPTDPRRRSRNLG
% Relative Immunoreactivity [2, 7]: 50.2%

B5: AVDFIPVENLETTMRSPVFTDNSSPPVVPQSFQVAHLHAPTGSGKSTKVPAAYAAQGYKVLVLNPS (peptide)
chain: AVDFIPVENLETTMRSPVFTDNSSPPVVPQSFQVAHLHAPTGSGKSTKVPAAYAAQGYKVLVLNPS
% IP [2, 5]: 11.8% | A492 nm (mA) by EIA [4, 8]: 8 mA | A492 nm (mA) by EIA [4, 9]: 973 mA | A492 nm (mA) by EIA ([4]; serum sample 2, Ctrl): 74 mA | A492 nm (mA) by EIA ([4]; serum sample 2, pH adj): 255 mA | A492 nm (mA) by EIA ([4]; serum sample 3, Ctrl): 29 mA | A492 nm (mA) by EIA ([4]; serum sample 3, pH adj): 141 mA | A492 nm (mA) by EIA ([4]; serum sample 4, Ctrl): 17 mA | A492 nm (mA) by EIA ([4]; serum sample 4, pH adj): 158 mA

B6: GCSGGAYDIIICDECHSTDATSILGIGTVLDQAETAGARLVVLATATPPGSVTVPHPNIEEVAL (peptide)
chain: GCSGGAYDIIICDECHSTDATSILGIGTVLDQAETAGARLVVLATATPPGSVTVPHPNIEEVAL
A492 nm (mA) by EIA [4, 8]: 628 mA | A492 nm (mA) by EIA [4, 9]: 1604 mA | A492 nm (mA) by EIA ([4]; serum sample 2, Ctrl): 148 mA | A492 nm (mA) by EIA ([4]; serum sample 2, pH adj): 466 mA | A492 nm (mA) by EIA ([4]; serum sample 3, Ctrl): 9 mA | A492 nm (mA) by EIA ([4]; serum sample 3, pH adj): 625 mA | A492 nm (mA) by EIA ([4]; serum sample 4, Ctrl): 464 mA | A492 nm (mA) by EIA ([4]; serum sample 4, pH adj): 1144 mA
